The labels stand for the following.
B1: R1_(5-16) K11A (peptide)
peptide: Ac-FLPLFSAFGSRM-NH2
notes: also called Lys11Ala mutant; source: synthetic peptide (Mimotopes)
B2: Recombinant f-2H, u-13C, 15N-labelled R1 peptide (peptide)
peptide: VFAEFLPLFSKFGSRMHILK
modifications: not fully specified
notes: source: E. coli BL21 (DE3), thioredoxin fusion from pET32a, purified (HisTrap, enterokinase cleavage, HiTrap QFF, RP-HPLC)

“Also recorded” adds a separate entry of the source. No end group written: not given here.

The target of the first experiment is T1, 3D7 PfAMA1_104–442 (Plasmodium falciparum, UniProt Q7KQK5).
T1 construct: His6 (TEV-cleavable); made in house
Briefly: SPR analysis of peptides binding to immobilized AMA1 (Biacore T200). To be noted: SPR alanine scan, 1% DMSO in HBS-EP, 25°C. Here is the method:
A Biacore T200 biosensor instrument was used to measure the affinity of the interaction of peptides with 3D7 PfAMA1_104–442. AMA1 was immobilized onto a CM5 chip as described. Surface plasmon resonance (SPR) experiments were performed at 25°C using HBS-EP (10 mM HEPES, 150 mM NaCl, 3.4 mM EDTA, and 0.05% surfactant P20, pH 7.4) as the running buffer either with (alanine scanning mutagenesis study) or without (truncation study) 1% DMSO. All peptide samples were prepared in the appropriate running buffer. To generate the peptide binding data, peptide at concentrations ranging from 10 nM to 10 µM was injected over immobilized AMA1 at a constant flow rate of 60 µL/min for 1.5 min; peptide dissociation was monitored by flowing running buffer at 60 µL/min for 5 min. The surface was regenerated after each cycle by injecting glycine/HCl at pH 2.0. Sensorgrams were first zeroed on the y-axis and then x-aligned at the start of the injection. Bulk refractive index changes were eliminated by subtracting the reference flow cell responses. For kinetic analysis, ka and kd were determined from the processed data sets by globally fitting to a 1∶1 binding model. For rapidly associating/dissociating truncated peptides, K D was determined by fitting to a steady-state affinity model using a fixed Rmax that was calculated based on the response of R1_5–16.
For the molecule Ac-FAPLFSKFGSRM-NH2 [R1_5–16 L6A], the “fold reduction in affinity for AMA1 relative to R1_5–16” value stood at 33 fold.
Still for that read-out and setting: under Ac-FLALFSKFGSRM-NH2 [R1_5–16 P7A] stands 35 fold.
The same measure, in the same setting: the value for Ac-FLPLFAKFGSRM-NH2 [R1_5–16 S10A] was “less than 3 fold”.
Still for that read-out and setting: under Ac-FLPLFSAFGSRM-NH2 [R1_5–16 K11A] stands 15 fold.
For the molecule Ac-FLPLFSKAGSRM-NH2 [R1_5–16 F12A], the “fold reduction in affinity for AMA1 relative to R1_5–16” value is reported as 48 fold.
In the case of Ac-FLPLFSKFASRM-NH2 [R1_5–16 G13A], the “fold reduction in affinity for AMA1 relative to R1_5–16” value was 21 fold.
Same read-out and setting: under Ac-FLPLFSKFGARM-NH2 [R1_5–16 S14A] stands “less than 3 fold”; under Ac-FLPLFSKFGSRA-NH2 [R1_5–16 M16A], “less than 3 fold”.

Staying with this experiment, now noted: SPR truncation study, no DMSO, 25°C.
As to Ac-EFLPLFSKFGSRMH-NH2 [R1_4–17], the “reduction of binding affinity relative to native R1” value was approximately 10 fold.
On the same count and under the same terms, the value for Ac-FLPLFSKFGSRM-NH2 [R1_5–16] was approximately 10 fold.

Staying with this experiment, now noted: SPR truncation study, no DMSO, 25°C; relative to R1_5–16.
In the case of Ac-FLPLFSKFGSR-NH2 [R1_5–15], the “further reduction in K D (affinity) on truncation of R1_5–16 to the 11-residue peptide” value is given as approximately 5 fold.

Staying with this experiment, now noted: SPR, AMA1 immobilized on CM5 chip, HBS-EP running buffer pH 7.4, no DMSO, 25°C; kinetic 1:1 fit (native R1) or steady-state affinity fit; peptide 10 nM to 10 µM; No binding = no binding event up to 10 µM peptide.
As to “R1_1–11: truncated R1 analogue, N-terminally acetylated and C-terminally amidated (Ac-VFAEFLPLFSK-NH2)”, the “Equilibrium dissociation constant K D, truncated R1” value was “no detectable binding; also recorded: No binding ^b”.
For the molecule “R1_5–14: 10-residue truncated R1 peptide, Arg15 deleted (Ac-FLPLFSKFGS-NH2)”, the “Equilibrium dissociation constant K D, truncated R1” value is “abolished measurable binding; also recorded: No binding ^b”.
Same read-out and setting: under “R1_11–20: truncated R1 analogue, N-terminally acetylated and C-terminally amidated (Ac-KFGSRMHILK-NH2)” stands “No binding ^b”.

A further experiment deals with T2, Domain I+II of 3D7 PfAMA1 (residue 104-442), immobilised for SPR (Plasmodium falciparum 3D7, UniProt Q7KQK5 104-442).
T2 sequence (looked up): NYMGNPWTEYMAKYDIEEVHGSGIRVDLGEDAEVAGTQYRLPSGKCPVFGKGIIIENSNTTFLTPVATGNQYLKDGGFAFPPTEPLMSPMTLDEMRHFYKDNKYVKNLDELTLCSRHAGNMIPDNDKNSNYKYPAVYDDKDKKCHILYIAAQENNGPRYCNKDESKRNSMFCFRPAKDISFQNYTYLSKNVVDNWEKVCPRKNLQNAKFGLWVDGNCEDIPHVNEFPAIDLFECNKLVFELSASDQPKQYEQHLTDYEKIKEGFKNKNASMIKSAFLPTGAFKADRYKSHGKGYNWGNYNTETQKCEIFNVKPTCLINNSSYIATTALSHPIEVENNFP
The experiment is described as follows: SPR. As to conditions: both partners purified.
As for Ac-FLPLFSKFGSRM-NH2 (source: synthetic peptide (Mimotopes)) [R1_(5-16)], binding was characterised by a dissociation constant (Kd) of 1.8 µM.
As to Ac-FLPLFSKFGARM-NH2 (source: synthetic peptide (Mimotopes)) [R1_(5-16) S14A], the Kd (usually a measure of binding affinity in units of concentration) is 3.3 µM.
The same measure, in the same setting: under Ac-FLPLFSKFGSRA-NH2 (source: synthetic peptide (Mimotopes)) [R1_(5-16) M16A] stands 2.7 µM; under Ac-FLPLFSKFGSAM-NH2 (source: synthetic peptide (Mimotopes)) [R1_(5-16) R15A], more than 100 µM; under Ac-FAPLFSKFGSRM-NH2 (source: synthetic peptide (Mimotopes)) [R1_(5-16) L6A], 60 µM.
On the same count and under the same terms, under Ac-FLPLFSKAGSRM-NH2 (source: synthetic peptide (Mimotopes)) [R1_(5-16) F12A] stands 87 µM.
In turn, Ac-FLALFSKFGSRM-NH2 (source: synthetic peptide (Mimotopes)) [R1_(5-16) P7A] yielded a Kd of 61 µM.
Same read-out and setting: the value for Ac-FLPLFSKFASRM-NH2 (source: synthetic peptide (Mimotopes)) [R1_(5-16) G13A] was 39 µM; that for Ac-FLPLFAKFGSRM-NH2 (source: synthetic peptide (Mimotopes)) [R1_(5-16) S10A] was 4.8 µM; that for B1 was 27 µM.

The target of another experiment is T2, Domain I+II of 3D7 PfAMA1 (residue …). Briefly: SPR. As to conditions: both partners purified. This is another data set of the same source.
As for VFAEFLPLFSKFGSRMHILK [Native R1 peptide], the stoichiometry N – broadly, the number of molecules, sites or subunits per partner or assembly – amounted to 1.

A further experiment has the same target. The experiment is described as follows: SPR. To be noted: both partners purified. The source holds these as a separate data set.
Consider Ac-FLPLFSKFGSRM-NH2 (source: synthetic peptide (Mimotopes)) [R1_(5-16)], for which binding was characterised by a dissociation constant (Kd) of 0.99 µM.
Still for that read-out and setting: under Ac-EFLPLFSKFGSRMH-NH2 (source: synthetic peptide (Mimotopes)) [R1_(4-17)] stands 0.88 µM; under VFAEFLPLFSKFGSRMHILK [Native R1 peptide], 0.11 µM; under Ac-FLPLFSKFGSR-NH2 (source: synthetic peptide (Mimotopes)) [R1_(5-15)], 4.6 µM.

Another experiment has as its target T3, Fractionally deuterated 3D7 PfAMA1 (residue 104-442), His6 tag cleaved, for NMR (Plasmodium falciparum 3D7, UniProt Q7KQK5 104-442, randomly fractionally deuterated (f-2H)).
T3 sequence (looked up): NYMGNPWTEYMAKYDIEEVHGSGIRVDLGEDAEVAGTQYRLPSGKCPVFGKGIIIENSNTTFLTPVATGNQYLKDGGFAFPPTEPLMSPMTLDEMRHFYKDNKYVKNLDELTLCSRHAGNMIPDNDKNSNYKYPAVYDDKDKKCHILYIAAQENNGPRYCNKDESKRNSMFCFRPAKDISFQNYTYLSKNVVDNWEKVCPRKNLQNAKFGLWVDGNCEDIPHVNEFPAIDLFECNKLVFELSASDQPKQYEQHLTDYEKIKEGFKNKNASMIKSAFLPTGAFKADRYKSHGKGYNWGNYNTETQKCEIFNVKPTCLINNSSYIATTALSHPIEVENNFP
The experiment is described as follows: NMR titration. As to conditions: both partners purified.
B2: the “stoichiometry N” value worked out at 1.
